# Laboratory results from publication PMC9035363.
# What was measured:
# [1] = target: RBD-Fc K417E (SARS-CoV-2) (UniProt P0DTC2)
# [2] = target: RBD-Fc E484K (SARS-CoV-2) (UniProt P0DTC2)
# [3] = target: RBD-Fc Y453F (SARS-CoV-2) (UniProt P0DTC2)
# [4] = target: RBD-Fc L452R (SARS-CoV-2) (UniProt P0DTC2)
# [5] = target: SARS-CoV-2 S S494P on CHO cells (SARS-CoV-2) (UniProt P0DTC2)
# [6] = target: RBD-Fc D420N (SARS-CoV-2) (UniProt P0DTC2)
# [7] = target: SARS-CoV-2 S D614G on CHO cells (SARS-CoV-2) (UniProt P0DTC2)
# [8] = target: RBD-Fc K417N (SARS-CoV-2) (UniProt P0DTC2)
# [9] = target: RBD-Fc K417T (SARS-CoV-2) (UniProt P0DTC2)
# [10] = target: SARS-CoV-2 S S477N on CHO cells (SARS-CoV-2) (UniProt P0DTC2)
# [11] = target: SARS-CoV-2 S N439K on CHO cells (SARS-CoV-2) (UniProt P0DTC2)
# [12] = target: RBD-Fc L452R (SARS-CoV-2) (UniProt P0DTC2); remark: listed apart in the source
# [13] = target: SARS-CoV-2 S D614G on CHO cells (SARS-CoV-2) (UniProt P0DTC2); remark: listed apart in the source
# [14] = target: SARS-CoV-2 S S494P on CHO cells (SARS-CoV-2) (UniProt P0DTC2); remark: listed apart in the source
# [15] = target: SARS-CoV-2 S N501Y on CHO cells (SARS-CoV-2) (UniProt P0DTC2)
# [16] = target: RBD N440D on yeast (SARS-CoV-2) (UniProt P0DTC2)
# [17] = target: RBD-Fc F490S (SARS-CoV-2) (UniProt P0DTC2); test: SPR
# [18] = target: RBD-Fc S477N (SARS-CoV-2) (UniProt P0DTC2); test: SPR
# [19] = target: RBD-Fc F486V (SARS-CoV-2) (UniProt P0DTC2); test: SPR
# [20] = target: RBD-Fc K417N (SARS-CoV-2) (UniProt P0DTC2); test: SPR
# [21] = target: RBD-Fc K417E (SARS-CoV-2) (UniProt P0DTC2); test: SPR
# [22] = target: RBD-Fc S494P (SARS-CoV-2) (UniProt P0DTC2); test: SPR
# [23] = target: RBD-Fc K417T (SARS-CoV-2) (UniProt P0DTC2); test: SPR
# [24] = target: RBD-Fc N460K (SARS-CoV-2) (UniProt P0DTC2); test: SPR
# [25] = target: RBD-Fc N439K (SARS-CoV-2) (UniProt P0DTC2); test: SPR
# [26] = target: RBD-Fc E484K (SARS-CoV-2) (UniProt P0DTC2); test: SPR
# [27] = target: RBD-Fc Y453F (SARS-CoV-2) (UniProt P0DTC2); test: SPR
# [28] = target: RBD-Fc L452R (SARS-CoV-2) (UniProt P0DTC2); test: SPR
# [29] = target: RBD-Fc N501Y (SARS-CoV-2) (UniProt P0DTC2); test: SPR
# [30] = target: RBD-Fc N460S (SARS-CoV-2) (UniProt P0DTC2); test: SPR
# [31] = target: RBD-Fc N460T (SARS-CoV-2) (UniProt P0DTC2); test: SPR
# [32] = target: RBD-Fc G476S (SARS-CoV-2) (UniProt P0DTC2); test: SPR
# [33] = target: RBD-Fc F486I (SARS-CoV-2) (UniProt P0DTC2); test: SPR
# [34] = target: RBD-Fc D420N (SARS-CoV-2) (UniProt P0DTC2); test: SPR
# [35] = target: RBD-Fc E484D (SARS-CoV-2) (UniProt P0DTC2); test: SPR
# [36] = target: RBD-Fc Y489H (SARS-CoV-2) (UniProt P0DTC2); test: SPR
# [37] = target: RBD-Fc V483A (SARS-CoV-2) (UniProt P0DTC2); test: SPR
# [38] = target: RBD-Fc E484Q (SARS-CoV-2) (UniProt P0DTC2); test: SPR
substance,measurement,setting,value
"LY-CoV1404 (bebtelovimab), full-length human IgG1 mAb (antibody)",pseudovirus (whole S) susceptibility IC50,[1],4 ng/mL
same,pseudovirus (whole S) susceptibility IC50,[2],2 ng/mL
same,pseudovirus (whole S) susceptibility IC50,[3],2 ng/mL
same,pseudovirus (whole S) susceptibility IC50,[4],2 ng/mL
same,pseudovirus susceptibility IC50,[5],1 ng/mL
same,pseudovirus (whole S) susceptibility IC50,[6],2 ng/mL
same,"pseudovirus neutralisation (second system of Table 3D), IC50",[7],3 ng/mL
same,VSV pseudovirus (whole S) neutralisation IC50,[8],2 ng/mL
same,VSV pseudovirus (whole S) neutralisation IC50,[9],2 ng/mL
same,VSV pseudovirus neutralisation IC50,[10],5 ng/mL
same,VSV pseudovirus neutralisation IC90,[10],0.026 µg/mL
same,VSV pseudovirus neutralisation IC50,[11],2 ng/mL
same,VSV pseudovirus neutralisation IC90,[11],7 ng/mL
same,VSV pseudovirus (whole S) neutralisation IC50,[12],< 1 ng/mL
same,lentiviral pseudovirus (whole S) neutralisation IC90,[12],0.01 µg/mL
same,lentiviral pseudovirus neutralisation IC50,[13],3 ng/mL
same,lentiviral pseudovirus neutralisation IC90,[13],0.01 µg/mL
same,VSV pseudovirus neutralisation IC50,[14],2 ng/mL
same,VSV pseudovirus neutralisation IC50,[15],2 ng/mL
same,VSV pseudovirus neutralisation IC90,[15],7 ng/mL
same,pseudovirus (whole S) susceptibility IC50,[16],6 ng/mL
LY-CoV1404 Fab (papain digestion),Kd,[17],2.99 nM
same,Kd,[18],3.45 nM
same,Kd,[19],2.82 nM
same,Kd,[20],3.08 nM
same,Kd,[21],2.59 nM
same,Kd,[22],3.46 nM
same,Kd,[23],2.54 nM
same,Kd,[24],3.4 nM
same,Kd,[25],5.05 nM
same,Kd,[26],3.19 nM
same,Kd,[27],3.28 nM
same,Kd,[28],4.94 nM
same,Kd,[29],2.9 nM
same,Kd,[30],2.6 nM
same,Kd,[31],3.52 nM
same,Kd,[32],4.35 nM
same,Kd,[33],2.69 nM
same,Kd,[34],4.09 nM
same,Kd,[35],3.37 nM
same,Kd,[36],3.06 nM
same,Kd,[37],3.29 nM
same,Kd,[38],3.74 nM
